The values that follow come from patent US6610297B1, “Peptide immunogens for vaccination against and treatment of allergy” (Novartis AG, priority 1996, dated 2003).

In assay [1] the test system is BSW17. In words: Recognition of phage-displayed peptides by BSW17 (phage display library screening). In kind it is binding. Further details: key: + + +: +(++), +/− = intensity of recognition by BSW 17; +(++), +/− = intensity of recognition by BSW 17; +(++), +/− = intensity of recognition by BSW 17; + /−: +(++), +/− = intensity of recognition by BSW 17. To be noted: phage-displayed circular peptides, group A. As for the experimental part: Bacteriophage particles specifically recognized by BSW17 are identified by biopanning of phage libraries displaying linear or circular random peptides from 6 to 15 amino acid residues in length fused to phage peptides pIII and pVIII, respectively. For amplification of phage libraries, 2 ml of a liquid culture of E. coli XL-I blue grown in SB medium to OD600=1.0 are incubated with 10^10 phages for 15 minutes at room temperature. 10 ml of SB medium containing […] of tetracycline and 20 μg/ml of carbenicillin are added and 10 μl, 1 μl and 0.1 μl, respectively, are plated on LB plates containing 100 μg/ml of carbenicillin. The culture is incubated at 37° with vigorous shaking for one hour, then 100 ml of SB containing 10 μg/ml of tetracycline and 50 μg/ml of carbenicillin are added and incubation is continued for one hour. 10^12 cfu of VCS M13 helper phage are added. After 2 hours with vigorous shaking at 37°. kanamycin is added to a final concentration of 70 μg/ml and incubation continued overnight. After centrifugation at 4000 g and 4° for 20 minutes, supernatants are mixed with 38 ml of an ice-cold sterile filtered solution of 12% NaCl and 16% PEG 8000, cooled on ice for 30 minutes and centrifuged for 30 minutes at 10000 g at 4°. The phage pellet is solubilized in 2 ml of TBS containing 1.5% casein and stored at 4°. For biopanning, COSTAR® RIA plates (Costar 3690) are coated over-night at 4° with 20 μg/ml of BSW17 in 0.1 M carbonate buffer, pH 9.6, and thereafter blocked with TBS containing 1.5% casein. 2×10^11 cfu of phages are added and incubated at 37° for 2 hours, then washed ten times with PBS/0.1% Tween 20. The wells are rinsed with water and the bound phages eluted with a total of 200 μl of 0.1 M HCl, pH 2.2 for 10 minutes. Eluted phages are neutralized with 2 M Tris base and amplified as described above.
For the selection of positive clones 50 μl of a E. coli XL-I blue liquid culture grown in SB-medium to OD600=1.0 are incubated with 1 μl of a 10^−8 dilution of amplified phages after the 3rd round of panning for 15 minutes at room temperature, then plated on LB plates containing 100 μg/ml of carbenicillin and grown overnight. Colonies are randomly picked and plated on LB plates containing 100 μg/ml of carbenicillin. After 4 hours at 37°, nitrocellulose filters soaked with 10 mM of IPTG are put on top and incubation continued overnight at 32°. Filters are removed and incubated at 37° for 30 minutes in a CHCl3-atmosphere. […]
The nucleotide sequence of the DNA encoding these peptides was determined. […]

Assay [2] deals with BSW17. In words: ELISA: recognition of coated mimotope conjugates by BSW17. To be noted: FIGS. 8a, 8b, 9a, 9b. It counts as binding. As for the experimental part: Microtiter plate wells are coated with 1 μg each of SDS236, SDS237 or free KLH and incubated with increasing concentrations of BSW17. Bound antibody is detected with goat anti-mouse IgG-HRP (gamIgG-HRP). The data shown represents means of duplicates minus background binding to uncoated (BSA-blocked) wells.
FIG. 8b summarizes ELISA data obtained with various BSW17 mimotope conjugates coupled to the carrier protein using several chemical coupling procedures. Microtiter plate wells are coated with 5 μg each of the mimotope conjugates, or free KLH, and incubated with 10 μg of BSW17. Bound antibody is detected with gamIgG-HRP. The data shown represents means of duplicates minus background binding to uncoated (BSA-blocked) wells. In contrast to free KLH, each BSW17 mimotope conjugate is found to be recognized by BSW17.
In FIGS. 9a and 9b it is shown that BSW17 mimotopes coupled to KLH or BSA are specifically recognized by BSW17 and not by the non-related monoclonal antibodies 3G9 (anti-human Cε3) and 5H5/F8 (anti-human RIα). Again, microtiter plate wells are coated with 5 μg each of the mimotope conjugates shown and incubated with 10 μg of the corresponding monoclonal antibody. Bound antibody is detected with gamIgG-HRP. The data shown represents means of duplicates minus background binding to uncoated (BSA-blocked) wells.
In general terms: An ELISA detects its analyte on a solid surface through an enzyme-linked reagent.

Assay [3] deals with human IgE (human) (UniProt P01854). In words: cell-based or functional assay.

Where no end group is shown, it is not given here.

Sequence of human IgE (human) (P01854 other isoform, or with tags, fused parts or gaps): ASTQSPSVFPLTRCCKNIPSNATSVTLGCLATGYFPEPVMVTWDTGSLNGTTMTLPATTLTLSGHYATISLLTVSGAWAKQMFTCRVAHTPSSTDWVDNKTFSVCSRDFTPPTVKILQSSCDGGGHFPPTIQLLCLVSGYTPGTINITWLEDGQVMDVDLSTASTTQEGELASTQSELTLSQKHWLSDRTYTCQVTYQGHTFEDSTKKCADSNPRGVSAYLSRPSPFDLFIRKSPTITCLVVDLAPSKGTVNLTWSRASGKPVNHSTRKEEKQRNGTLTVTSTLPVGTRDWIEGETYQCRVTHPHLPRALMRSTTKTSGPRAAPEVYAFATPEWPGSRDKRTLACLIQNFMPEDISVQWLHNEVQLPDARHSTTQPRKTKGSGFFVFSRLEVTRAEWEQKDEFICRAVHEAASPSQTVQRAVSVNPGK

As to “Cys Thr Leu Ser Val Phe Gly Tyr Trp Val Cys (CTLSVFGYWVC; cysteine pairing not given here; also: circular) [Seq.id.no. 21]”, the “intensity of recognition by BSW 17” value in assay [1] is recorded as “+ /−”.

Take “CTRLHTGYWVC (cysteine pairing not given here) [Seq.id.no. 20]”: in assay [1], the “intensity of recognition by BSW 17” value is “+”.

As to keyhole limpet hemocyanin [KLH], in assay [2], the “Recognition of conjugate by BSW17” value is “no binding”.

For linear KTKGSGFFVF-KLH [SDS237], the “Recognition of conjugate by BSW17” value in assay [2] is reported as “recognized by BSW17 in a dose-dependent manner”.

As to cyclic GEFCINHRGYWVCGDPA-KLH [SDS236], in assay [2], the “Recognition of conjugate by BSW17” value is recorded as “recognized by BSW17 in a dose-dependent manner”.

In the case of monoclonal antibody BSW17, in assay [3], the Specific histamine release (%), A: during sensitization with IgE and BSW17; Experiment 1 came out at 3.6%; the Specific histamine release (%), A: during sensitization with IgE and BSW17; Experiment 2 came to 3%; the Specific histamine release (%), A: during sensitization with IgE and BSW17; Experiment 3 stood at 4.4%; the Specific histamine release (%), B: after triggering with Le27; cells sensitized with IgE and BSW17; Experiment 1 is 3.1%. In addition, in assay [3], the Specific histamine release (%), B: after triggering with Le27; cells sensitized with IgE and BSW17; Experiment 2 was 1.5%; the Specific histamine release (%), B: after triggering with Le27; cells sensitized with IgE and BSW17; Experiment 3 came out at 0.9%.
